According to paper PMC12354254:
Several values for one entry are separate records, joined by “and”; a condition that tells them apart may be missing. Identical values can stand only once.

Target: Brucella ovis PhyK (HWE-family histidine kinase, BOV_1602) (Brucella ovis)
Assay: SEC

Brucella ovis PhyK (HWE-family histidine kinase, BOV_1602) (enzyme)
stoichiometry N: 6 and 2
